Source: IntAct's records for PubMed 25910212

B1: Dual specificity protein phosphatase 23 (Homo sapiens), Q9BVJ7 (parent)
chain: MGVQPPNFSWVLPGRLAGLALPRLPAHYQFLLDLGVRHLVSLTERGPPHSDSCPGLTLHRLRIPDFCPPAPDQIDRFVQIVDEANARGEAVGVHCALGFGRTGTMLACYLVKERGLAAGDAIAEIRRLRPGSIETYEQEKAVFQFYQRTK
B2: U4/U6 small nuclear ribonucleoprotein Prp31 (Homo sapiens), Q8WWY3 (parent)
chain: MSLADELLADLEEAAEEEEGGSYGEEEEEPAIEDVQEETQLDLSGDSVKTIAKLWDSKMFAEIMMKIEEYISKQAKASEVMGPVEAAPEYRVIVDANNLTVEIENELNIIHKFIRDKYSKRFPELESLVPNALDYIRTVKELGNSLDKCKNNENLQQILTNATIMVVSVTASTTQGQQLSEEELERLEEACDMALELNASKHRIYEYVESRMSFIAPNLSIIIGASTAAKIMGVAGGLTNLSKMPACNIMLLGAQRKTLSGFSSTSVLPHTGYIYHSDIVQSLPPDLRRKAARLVAAKCTLAARVDSFHESTEGKVGYELKDEIERKFDKWQEPPPVKQVKPLPAPLDGQRKKRGGRRYRKMKERLGLTEIRKQANRMSFGEIEEDAYQEDLGFSLGHLGKSGSGRVRQTQVNEATKARISKTLQRTLQKQSVVYGGKSTIRDRSSGTASSVAFTPLQGLEIVNPQAAEKKVAEANQKYFSSMAEFLKVKGEKSGLMST
partner: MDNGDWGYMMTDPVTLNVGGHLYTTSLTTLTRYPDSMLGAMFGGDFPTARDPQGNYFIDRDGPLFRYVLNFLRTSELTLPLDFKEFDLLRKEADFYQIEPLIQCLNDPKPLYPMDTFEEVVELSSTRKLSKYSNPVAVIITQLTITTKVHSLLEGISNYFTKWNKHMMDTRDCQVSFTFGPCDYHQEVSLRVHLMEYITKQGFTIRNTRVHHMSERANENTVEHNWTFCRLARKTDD
B3: Meiotic recombination protein DMC1/LIM15 homolog (Homo sapiens), Q14565 (parent)
chain: MKEDQVVAEEPGFQDEEESLFQDIDLLQKHGINVADIKKLKSVGICTIKGIQMTTRRALCNVKGLSEAKVDKIKEAANKLIEPGFLTAFEYSEKRKMVFHITTGSQEFDKLLGGGIESMAITEAFGEFRTGKTQLSHTLCVTAQLPGAGGYPGGKIIFIDTENTFRPDRLRDIADRFNVDHDAVLDNVLYARAYTSEHQMELLDYVAAKFHEEAGIFKLLIIDSIMALFRVDFSGRGELAERQQKLAQMLSRLQKISEEYNVAVFVTNQMTADPGATMTFQADPKKPIGGHILAHASTTRISLRKGRGELRIAKIYDSPEMPENEATFAITAGGIGDAKE
B4: F-box only protein 7 (Homo sapiens), Q9Y3I1 (parent)
chain: MRLRVRLLKRTWPLEVPETEPTLGHLRSHLRQSLLCTWGYSSNTRFTITLNYKDPLTGDEETLASYGIVSGDLICLILQDDIPAPNIPSSTDSEHSSLQNNEQPSLATSSNQTSMQDEQPSDSFQGQAAQSGVWNDDSMLGPSQNFEAESIQDNAHMAEGTGFYPSEPMLCSESVEGQVPHSLETLYQSADCSDANDALIVLIHLLMLESGYIPQGTEAKALSMPEKWKLSGVYKLQYMHPLCEGSSATLTCVPLGNLIVVNATLKINNEIRSVKRLQLLPESFICKEKLGENVANIYKDLQKLSRLFKDQLVYPLLAFTRQALNLPDVFGLVVLPLELKLRIFRLLDVRSVLSLSAVCRDLFTASNDPLLWRFLYLRDFRDNTVRVQDTDWKELYRKRHIQRKESPKGRFVMLLPSSTHTIPFYPNPLHPRPFPSSRLPPGIIGGEYDQRPTLPYVGDPISSLIPGPGETPSQFPPLRPRFDPVGPLPGPNPILPGRGGPNDRFPFRPSRGRPTDGRLSFM
B5: U4/U6 small nuclear ribonucleoprotein Prp3 (Homo sapiens), O43395 (parent)
chain: MALSKRELDELKPWIEKTVKRVLGFSEPTVVTAALNCVGKGMDKKKAADHLKPFLDDSTLRFVDKLFEAVEEGRSSRHSKSSSDRSRKRELKEVFGDDSEISKESSGVKKRRIPRFEEVEEEPEVIPGPPSESPGMLTKLQIKQMMEAATRQIEERKKQLSFISPPTPQPKTPSSSQPERLPIGNTIQPSQAATFMNDAIEKARKAAELQARIQAQLALKPGLIGNANMVGLANLHAMGIAPPKVELKDQTKPTPLILDEQGRTVDATGKEIELTHRMPTLKANIRAVKREQFKQQLKEKPSEDMESNTFFDPRVSIAPSQRQRRTFKFHDKGKFEKIAQRLRTKAQLEKLQAEISQAARKTGIHTSTRLALIAPKKELKEGDIPEIEWWDSYIIPNGFDLTEENPKREDYFGITNLVEHPAQLNPPVDNDTPVTLGVYLTKKEQKKLRRQTRREAQKELQEKVRLGLMPPPEPKVRISNLMRVLGTEAVQDPTKVEAHVRAQMAKRQKAHEEANAARKLTAEQRKVKKIKKLKEDISQGVHISVYRVRNLSNPAKKFKIEANAGQLYLTGVVVLHKDVNVVVVEGGPKAQKKFKRLMLHRIKWDEQTSNTKGDDDEESDEEAVKKTNKCVLVWEGTAKDRSFGEMKFKQCPTENMAREHFKKHGAEHYWDLALSESVLESTD
B6: Lipopolysaccharide-induced tumor necrosis factor-alpha factor (Homo sapiens), Q99732 (parent)
chain: MSVPGPYQAATGPSSAPSAPPSYEETVAVNSYYPTPPAPMPGPTTGLVTGPDGKGMNPPSYYTQPAPIPNNNPITVQTVYVQHPITFLDRPIQMCCPSCNKMIVSQLSYNAGALTWLSCGSLCLLGCIAGCCFIPFCVDALQDVDHYCPNCRALLGTYKRL

Variants of: B1
Details: with exos8_human EXOSC8, Q96B26
exos8_human EXOSC8, Q96B26, sequence (Q96B26 whole entry): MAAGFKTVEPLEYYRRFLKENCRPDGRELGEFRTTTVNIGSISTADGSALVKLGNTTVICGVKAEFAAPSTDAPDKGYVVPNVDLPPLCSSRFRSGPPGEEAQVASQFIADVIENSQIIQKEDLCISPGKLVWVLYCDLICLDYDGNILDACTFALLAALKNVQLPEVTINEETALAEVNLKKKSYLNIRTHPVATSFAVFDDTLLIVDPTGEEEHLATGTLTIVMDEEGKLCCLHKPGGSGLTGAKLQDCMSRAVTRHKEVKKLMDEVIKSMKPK

Variant | effect of a mutation on the interaction
G131S | with no effect

Variants of: B2
Details: with kctd6_human KCTD6, Q8NC69

Variant | effect of a mutation on the interaction
L107V | with no effect

Variants of: B3
Details: with psa3_human PSMA3, P25788
Target sequence in this assay (P25788 whole entry): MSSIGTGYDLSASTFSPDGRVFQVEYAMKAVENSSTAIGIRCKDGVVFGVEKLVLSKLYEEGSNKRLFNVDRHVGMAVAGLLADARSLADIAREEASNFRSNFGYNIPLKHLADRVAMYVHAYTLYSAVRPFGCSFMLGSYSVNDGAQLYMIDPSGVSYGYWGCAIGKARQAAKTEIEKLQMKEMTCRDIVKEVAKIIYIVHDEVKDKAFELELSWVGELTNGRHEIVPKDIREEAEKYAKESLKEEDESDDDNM

Variant | effect of a mutation on the interaction
M200V | disrupting interaction strength

Variants of: B3
Details: with sdcb1_human SDCBP

Variant | effect of a mutation on the interaction
M200V | disrupting interaction strength

Variants of: B4
Details: with psa3_human PSMA3, P25788
Target sequence in this assay (P25788 whole entry): as above

Variant | effect of a mutation on the interaction
T22M | disrupting interaction strength

Variants of: B5
Details: with psmd3_human PSMD3, O43242
psmd3_human PSMD3, O43242, sequence (O43242 whole entry): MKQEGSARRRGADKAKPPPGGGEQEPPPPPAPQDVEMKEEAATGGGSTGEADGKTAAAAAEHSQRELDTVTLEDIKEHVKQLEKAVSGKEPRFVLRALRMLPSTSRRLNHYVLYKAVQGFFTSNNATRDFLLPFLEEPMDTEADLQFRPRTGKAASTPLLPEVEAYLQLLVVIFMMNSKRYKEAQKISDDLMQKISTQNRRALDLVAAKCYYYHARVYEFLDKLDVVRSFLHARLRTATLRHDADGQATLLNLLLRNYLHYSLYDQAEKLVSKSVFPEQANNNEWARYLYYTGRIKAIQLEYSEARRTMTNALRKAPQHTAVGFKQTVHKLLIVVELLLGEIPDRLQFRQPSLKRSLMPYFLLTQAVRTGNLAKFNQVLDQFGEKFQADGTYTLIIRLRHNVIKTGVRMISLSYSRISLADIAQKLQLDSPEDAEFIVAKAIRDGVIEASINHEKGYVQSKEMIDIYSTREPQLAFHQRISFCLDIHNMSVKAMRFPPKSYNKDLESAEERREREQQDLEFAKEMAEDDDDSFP

Variant | effect of a mutation on the interaction
A489D | disrupting interaction strength
P493S | disrupting interaction strength
T494M | disrupting interaction strength

Variants of: B5
Details: with fam9b_human FAM9B

Variant | effect of a mutation on the interaction
A489D | with no effect
P493S | with no effect
T494M | disrupting interaction strength

Variants of: B6
Details: with UBQLN1, Q9UMX0-2
UBQLN1, Q9UMX0-2, sequence (Q9UMX0 other isoform, or with tags, fused parts or gaps): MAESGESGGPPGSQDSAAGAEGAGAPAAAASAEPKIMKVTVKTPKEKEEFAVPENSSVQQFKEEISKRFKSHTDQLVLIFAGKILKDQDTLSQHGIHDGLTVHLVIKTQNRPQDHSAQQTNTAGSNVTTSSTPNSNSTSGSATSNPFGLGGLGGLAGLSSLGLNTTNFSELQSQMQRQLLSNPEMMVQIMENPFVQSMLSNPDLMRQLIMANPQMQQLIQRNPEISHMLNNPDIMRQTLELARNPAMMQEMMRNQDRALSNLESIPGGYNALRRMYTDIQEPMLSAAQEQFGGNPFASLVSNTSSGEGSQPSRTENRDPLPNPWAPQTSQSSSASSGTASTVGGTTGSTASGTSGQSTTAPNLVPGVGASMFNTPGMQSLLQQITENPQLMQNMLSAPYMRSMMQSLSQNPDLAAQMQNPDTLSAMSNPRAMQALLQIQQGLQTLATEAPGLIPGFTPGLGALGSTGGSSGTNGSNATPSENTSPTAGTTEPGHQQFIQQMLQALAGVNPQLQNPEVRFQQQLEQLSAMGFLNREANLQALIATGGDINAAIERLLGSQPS

Variant | effect of a mutation on the interaction
I92V | with no effect
A111G | disrupting interaction strength

Variants of: B6
Details: with stam2_human STAM2, O75886

Variant | effect of a mutation on the interaction
I92V | with no effect
A111G | disrupting interaction strength

Variants of: B6
Details: with reep6_human REEP6, Q96HR9
reep6_human REEP6, Q96HR9, sequence (Q96HR9 whole entry): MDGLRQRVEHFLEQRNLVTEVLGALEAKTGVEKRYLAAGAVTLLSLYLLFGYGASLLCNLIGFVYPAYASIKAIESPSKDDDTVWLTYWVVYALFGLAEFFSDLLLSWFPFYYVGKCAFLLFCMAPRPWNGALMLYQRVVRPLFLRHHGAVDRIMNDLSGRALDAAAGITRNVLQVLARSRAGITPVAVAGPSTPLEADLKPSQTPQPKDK

Variant | effect of a mutation on the interaction
I92V | with no effect
A111G | disrupting interaction strength

Variants of: B6
Details: with hgs_human HGS

Variant | effect of a mutation on the interaction
I92V | with no effect
A111G | disrupting interaction strength

Variants of: B6
Details: with OPTN

Variant | effect of a mutation on the interaction
I92V | with no effect
A111G | disrupting interaction strength
